Measurements from patent publication US11214614B2, “LTBP complex-specific inhibitors of TGFβ and uses thereof” (Scholar Rock, Inc., priority 2019, dated 2022).

How the values were obtained:
Assay in all cases: Octet (BLI) binding, IgG captured on AHC tips, antigen at 100 nM
[1] = biological target: huLTBP1 proTGFβ1 (Homo sapiens, UniProt P01137+Q14766); conditions: Table 9, cycle 3, IgG1-agly
Protocol: (§1) Suitable methods for in vitro binding assays to determine the parameters of binding kinetics include Bio-layer Interferometry (BLI)-based assays such as Octet, and surface plasmon resonance (SPR)-based assays, such as Biacore systems (see, for example: biophysics.bioc.cam.ac.uk/wp-content/uploads/2011/02/Biacore_assay_handbook.pdf).
(§2) The affinity of SR-AB10, SR-AB2 and SR-AB13 was measured by Octet assay. The protocol used to measure the affinity of the antibodies to the complexes provided herein is summarized below.
(§3) • 96 well black polypropylene plates • AHC Octet tips (anti-human IgG Fc capture tips) (FortdBio) • 10× kinetics buffer (FortdBio) (diluted to 1× in PBS) • reiner Bio-One 96-Well Half Area Microplates (VWR cat #82050-044) Procedure:
(§4) Notes: The volume within each well during an Octet experiment is 100 uL.
(§5) A shake speed of 1000 rpm is used for all assay steps.
(§6) Pre-Wet Tips: • Biosensors must be pre-wet in 1× kinetics buffer (lx KB) for at least 10 minutes before starting an experiment. This can be done inside the Octet or on the bench.
(§7) Loading: • Tips are baselined in 1× KB for 1 minute before loading. • AHC tips are loaded with antibody at a concentration of 1 μg/mL (˜7 nM) for 3 minutes. A limit is set so that loading will stop when any one sensor reaches a response of 1 nanometer. • Tips are baselined in buffer for 1 minute after loading. The antibody should not dissociate from the tips during this time.
(§8) Antigen Association: • TGFβ1 in complex with various presentation molecules was associated to the immobilized antibodies at a single concentration of 100 nM in 1× KB.
(§9) Antibody Dissociation: • Dissociation in 1×KB was performed for 3 minutes.
(§10) Data Analysis using ForteBio Data analysis software 8.2: • Processing: align Y axis to last 5 seconds of baseline, perform inter-step correction with align to dissociation, and perform Savitzky-Golay filtering. • Analysis: 1:1 fitting model is utilized. Fitting is local and full. […] Results:
(§11) LTBP complex-specific antibodies from the first round of affinity maturation/optimization (SR-AB14, SR-AB16, SR-AB17, SR-AB18, SR-AB19) were selected for a second round of affinity maturation/optimization (i.e., CDR-H3 mutagenesis as described herein) and particular progeny antibodies (SR-AB20, SR-AB21, SR-AB22, SR-AB23, SR-AB24, SR-AB25, SR-AB26, SR-AB27, SR-AB28, and SR-AB29) were assessed for their ability to bind various proTGFβl constructs. Binding affinities of the optimized antibodies were measured by Octet against human LTBP1-proTGFβI, human LTBP3-proTGFb1, mouse LTBP1-proTGFβ1, mouse LTBP3-proTGFb1, and GARP-proTGFβl complexes, essentially as described in Example 6. In brief, test antibodies were immobilized to the surface of anti-human Fc capture biosensors (AHC) (ForteBio®) and binding was then tested against the various TGFβ1 complexes at a single concentration of 100 nM to assess binding affinities. The antigens were allowed to associate for 3 minutes followed by a 5-minute dissociation. Kinetics buffer (ForteBio®) was used throughout the experiment, and KD was determined using a 1:1 fitting model for each antibody antigen pair.
(§12) Binding affinities of the optimized antibodies were measured by Octet against human LTBP1-proTGFβ1, human LTBP3-proTGFβ1, mouse LTBP1-proTGFβ1, mouse LTBP3-proTGFβ1, and GARP-proTGFβ1 complexes, essentially as described in Example 6. In brief, test antibodies were immobilized to the surface of anti-human Fc capture biosensors (AHC) (ForteBio®) and binding was then tested against the various TGFβ1 complexes at a single concentration of 100 nM to assess binding affinities. The antigens were allowed to associate for 3 minutes followed by a 5-minute dissociation. Kinetics buffer (ForteBio®) was used throughout the experiment, and KD was determined using a 1:1 fitting model for each antibody antigen pair. […]

[2] = biological target: huGARP proTGFβ1 (Homo sapiens, UniProt P01137); conditions: N.B. = non-binder under conditions of this assay; for ForteBio IgG KD Hu GARP-proTGFβ1 (M) Avid: Table 9, cycle 3, IgG1-agly, 1:1 fit; for ForteBio IgG KD Hu GARP-proTGFβ1 in solution (M) Avid: Table 10, same assay conditions as Table 9
huGARP proTGFβ1, sequence (P01137 30-390): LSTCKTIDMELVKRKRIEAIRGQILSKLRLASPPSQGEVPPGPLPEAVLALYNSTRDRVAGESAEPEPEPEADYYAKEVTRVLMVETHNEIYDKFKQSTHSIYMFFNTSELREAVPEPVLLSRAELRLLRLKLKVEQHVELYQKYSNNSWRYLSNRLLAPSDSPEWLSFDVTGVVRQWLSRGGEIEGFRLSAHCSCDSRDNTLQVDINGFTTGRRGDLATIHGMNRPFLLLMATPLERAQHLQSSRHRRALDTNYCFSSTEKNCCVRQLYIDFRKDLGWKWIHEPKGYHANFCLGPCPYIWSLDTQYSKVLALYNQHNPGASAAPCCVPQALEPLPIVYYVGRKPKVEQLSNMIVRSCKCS
huGARP proTGFβ1, sequence (Q14392 18-627 partner limits assumed): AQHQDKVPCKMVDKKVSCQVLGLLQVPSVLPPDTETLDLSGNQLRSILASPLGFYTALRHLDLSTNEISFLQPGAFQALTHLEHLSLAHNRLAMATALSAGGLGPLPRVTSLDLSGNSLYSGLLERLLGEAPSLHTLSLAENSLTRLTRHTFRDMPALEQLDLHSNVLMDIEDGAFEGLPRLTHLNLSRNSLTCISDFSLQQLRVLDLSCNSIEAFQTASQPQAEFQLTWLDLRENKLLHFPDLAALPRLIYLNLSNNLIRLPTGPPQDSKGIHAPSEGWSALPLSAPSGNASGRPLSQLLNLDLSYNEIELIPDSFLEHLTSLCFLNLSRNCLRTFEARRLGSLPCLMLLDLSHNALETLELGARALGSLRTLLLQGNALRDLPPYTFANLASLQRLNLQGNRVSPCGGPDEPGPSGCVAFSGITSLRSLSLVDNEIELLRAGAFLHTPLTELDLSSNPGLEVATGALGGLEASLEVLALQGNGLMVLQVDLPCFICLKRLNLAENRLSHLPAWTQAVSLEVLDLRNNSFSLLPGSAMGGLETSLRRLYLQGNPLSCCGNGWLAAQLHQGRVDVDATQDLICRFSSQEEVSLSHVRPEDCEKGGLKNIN
Protocol: as §1, §2, §3, §4, §5, §6, §7, §8, §9, §10, §11, §12

[3] = biological target: huLTBP3 proTGFβ1 (Homo sapiens, UniProt P01137+Q9NS15); conditions: Table 9, cycle 3, IgG1-agly; for Hu LTBP3-proTGFβ1 Kon: 1:1 fit; for Hu LTBP3-proTGFβ1 Koff: 5-minute dissociation
huLTBP3 proTGFβ1, sequence (P01137 30-390): as the sequence (P01137 30-390) above
huLTBP3 proTGFβ1, sequence (Q9NS15 44-1303): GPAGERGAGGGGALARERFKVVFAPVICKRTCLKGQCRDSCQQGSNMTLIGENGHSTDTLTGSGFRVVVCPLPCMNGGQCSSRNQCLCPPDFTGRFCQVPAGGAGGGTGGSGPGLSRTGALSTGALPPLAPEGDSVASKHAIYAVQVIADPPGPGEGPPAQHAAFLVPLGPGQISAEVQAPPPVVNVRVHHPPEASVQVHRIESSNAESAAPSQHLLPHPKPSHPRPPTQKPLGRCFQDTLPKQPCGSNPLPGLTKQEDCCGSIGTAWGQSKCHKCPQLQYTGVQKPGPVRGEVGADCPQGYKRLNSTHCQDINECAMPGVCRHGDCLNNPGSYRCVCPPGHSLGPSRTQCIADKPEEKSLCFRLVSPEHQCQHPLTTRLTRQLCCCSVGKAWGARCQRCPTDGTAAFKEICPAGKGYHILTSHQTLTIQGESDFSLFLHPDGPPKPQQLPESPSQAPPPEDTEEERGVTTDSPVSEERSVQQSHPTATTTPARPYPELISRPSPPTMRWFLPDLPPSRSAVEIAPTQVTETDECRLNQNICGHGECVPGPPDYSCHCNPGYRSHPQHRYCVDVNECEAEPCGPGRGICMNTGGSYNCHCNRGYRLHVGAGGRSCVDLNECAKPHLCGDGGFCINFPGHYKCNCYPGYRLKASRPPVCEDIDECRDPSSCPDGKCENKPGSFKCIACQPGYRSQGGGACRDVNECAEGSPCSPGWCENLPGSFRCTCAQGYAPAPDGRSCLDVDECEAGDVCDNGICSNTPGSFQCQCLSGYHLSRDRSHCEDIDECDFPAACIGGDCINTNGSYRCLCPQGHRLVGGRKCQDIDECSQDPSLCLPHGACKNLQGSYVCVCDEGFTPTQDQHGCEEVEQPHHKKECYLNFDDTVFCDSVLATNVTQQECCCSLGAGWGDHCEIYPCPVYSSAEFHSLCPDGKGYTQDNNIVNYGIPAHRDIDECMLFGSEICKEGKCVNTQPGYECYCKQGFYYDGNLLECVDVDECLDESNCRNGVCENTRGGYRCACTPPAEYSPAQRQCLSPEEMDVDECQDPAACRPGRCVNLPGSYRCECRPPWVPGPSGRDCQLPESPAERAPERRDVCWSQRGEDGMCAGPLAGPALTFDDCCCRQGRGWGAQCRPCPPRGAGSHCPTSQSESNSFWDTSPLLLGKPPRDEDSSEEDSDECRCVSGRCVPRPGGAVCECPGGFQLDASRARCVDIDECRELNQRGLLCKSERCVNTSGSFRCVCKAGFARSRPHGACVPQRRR
Protocol: as §1, §2, §3, §4, §5, §6, §7, §8, §9, §10, §11
Binding affinities of the optimized antibodies were measured by Octet against human LTBP1-proTGFβ1, human LTBP3-proTGFβ1, mouse LTBP1-proTGFβ1, mouse LTBP3-proTGFβ1, and GARP-proTGFβ1 complexes, essentially as described in Example 6. In brief, test antibodies were immobilized to the surface of anti-human Fc capture biosensors (AHC) (ForteBio®) and binding was then tested against the various TGFβ1 complexes at a single concentration of 100 nM to assess binding affinities. The antigens were allowed to associate for 3 minutes followed by a 5-minute dissociation. Kinetics buffer (ForteBio®) was used throughout the experiment, and KD was determined using a 1:1 fitting model for each antibody antigen pair.

huLTBP1 proTGFβ1, sequence (P01137 30-390): as the sequence (P01137 30-390) above
huLTBP1 proTGFβ1, sequence (Q14766 347-1721 limits assumed): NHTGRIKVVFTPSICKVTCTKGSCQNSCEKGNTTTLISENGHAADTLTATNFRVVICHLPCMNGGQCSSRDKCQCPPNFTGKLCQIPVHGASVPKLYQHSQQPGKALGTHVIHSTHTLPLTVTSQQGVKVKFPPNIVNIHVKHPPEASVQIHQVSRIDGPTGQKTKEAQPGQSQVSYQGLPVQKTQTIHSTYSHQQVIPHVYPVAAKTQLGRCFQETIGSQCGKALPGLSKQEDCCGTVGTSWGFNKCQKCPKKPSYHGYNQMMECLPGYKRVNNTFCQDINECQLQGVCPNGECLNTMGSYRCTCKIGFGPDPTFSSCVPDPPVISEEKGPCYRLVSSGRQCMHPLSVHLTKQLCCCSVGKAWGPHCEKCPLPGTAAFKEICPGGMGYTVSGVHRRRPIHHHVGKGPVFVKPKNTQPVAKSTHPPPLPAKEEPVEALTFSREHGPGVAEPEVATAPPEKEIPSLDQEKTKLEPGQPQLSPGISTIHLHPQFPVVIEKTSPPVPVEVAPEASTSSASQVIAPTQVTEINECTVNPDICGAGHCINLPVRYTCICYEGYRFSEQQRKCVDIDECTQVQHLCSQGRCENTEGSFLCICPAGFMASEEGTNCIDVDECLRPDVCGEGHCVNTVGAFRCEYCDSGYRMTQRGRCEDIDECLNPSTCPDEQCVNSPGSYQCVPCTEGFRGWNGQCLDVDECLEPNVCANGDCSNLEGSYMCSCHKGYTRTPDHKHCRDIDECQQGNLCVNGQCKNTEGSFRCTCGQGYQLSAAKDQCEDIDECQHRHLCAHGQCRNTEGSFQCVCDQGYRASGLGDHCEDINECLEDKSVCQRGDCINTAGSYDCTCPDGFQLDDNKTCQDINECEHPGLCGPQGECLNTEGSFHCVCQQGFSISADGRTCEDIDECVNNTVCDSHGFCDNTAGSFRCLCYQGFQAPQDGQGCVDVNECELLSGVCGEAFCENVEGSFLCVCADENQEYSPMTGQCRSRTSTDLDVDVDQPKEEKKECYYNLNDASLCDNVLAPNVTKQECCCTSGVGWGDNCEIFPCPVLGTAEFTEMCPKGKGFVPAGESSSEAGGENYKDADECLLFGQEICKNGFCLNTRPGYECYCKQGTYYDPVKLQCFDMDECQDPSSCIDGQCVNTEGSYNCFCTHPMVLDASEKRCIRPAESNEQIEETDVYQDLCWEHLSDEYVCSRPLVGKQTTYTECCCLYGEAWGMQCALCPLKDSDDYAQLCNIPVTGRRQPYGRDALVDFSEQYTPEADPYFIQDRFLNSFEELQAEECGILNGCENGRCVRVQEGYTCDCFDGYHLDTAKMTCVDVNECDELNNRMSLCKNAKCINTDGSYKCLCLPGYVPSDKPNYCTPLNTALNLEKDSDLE

Hu LTBP1-proTGFβ1 Kon ([1]; 1:1 fit) [M⁻¹ s⁻¹] | Hu LTBP1-proTGFβ1 Koff ([1]; 5-minute dissociation) [s⁻¹] | ForteBio IgG KD Hu GARP-proTGFβ1 (M) Avid [2] | ForteBio IgG KD Hu GARP-proTGFβ1 in solution (M) Avid [2] | Hu LTBP3-proTGFβ1 Kon [3] [M⁻¹ s⁻¹] | Hu LTBP3-proTGFβ1 Koff [3] [s⁻¹] | Molecule
140000 | 6.82e-05 | N.B. | N.B. | 203000 | 7.47e-05 | SR-AB62: cycle 3 light chain-optimized antibody, lineage SR-AB24; CDRs SEQ ID NO: 286-291 (antibody, V domains shown) VH: QLQLQESGPGLAKPSETLSLTCTVSGGSIRSSSYYWGWIRQPPGKGLEWIGSISYSATTYYNPSLKSRVTISVDTSKNQFSLKLSSVTAADTAVYYCASDPSYDSAAGMDVWGQGTTVTVSS VL: DIQMTQSPSSLSASVGDRVTITCRASKVISSYLNWYQQKPGKAPKLLIYYASSLQSGVPSRFSGSGSGTDFTLTISSLQPEDFATYYCQQSNDWPFTFGGGTKVEIK
 |  | N.B. | N.B. | 195000 | 9.18e-05 | SR-AB64: cycle 3 light chain-optimized antibody, lineage SR-AB26; CDRs SEQ ID NO: 298-303 (antibody, V domains shown) VH: QLQLQESGPGLVKPSETLSLTCTVSGGSIRSSSYYWGWIRQPPGKGLEWIGSISYSATTYYNPSLKSRVTISVDTSKNQFSLKLSSVTAADTAVYYCAGDPSYDSIAGMQVWGQGTTVTVSS VL: DIQMTQSPSSLSASVGDRVTITCRASQSISYYLNWYQQKPGKAPKLLIYSASSRQSGVPSRFSGSGSGTDFTLTISSLQPEDFATYYCQQGFDFPLTFGGGTKVEIK
